From the supplement of paper PMC10567573

B1: TRIM43 (parent)
chain: YQEIFQQLQRSWVKMDQKSKHLKE

Variants of: B1
Test: protein stability index of a GFP-peptide fusion (GPS, HEK-293T) (PSI 1-6); higher = more stable
Conditions: c terminus: a fixed tail appended
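Note: lentivirally expressed fusions sorted by FACS into six bins by GFP to DsRed ratio, PSI derived from sequencing read proportions per bin multiplied by bin number.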

Protein stability index: each site, then its substitutions
H21: L 1.91, V 1.79, E 2.68, T 2.28, N 2.59, G 2.33, Y 2.27, A 2.23, D 2.56, R 2.53, Q 2.28
S19: T 2.86, P 2.3, C 1.99, I 3.05, A 3.09, M 2.44, R 1.98, E 2.29
Q7: K 1.61, W 3.41, T 1.82, S 2.89, C 1.94, F 1.52, A 1.87, P 2.28, V 1.65, H 2.42, R 1.66
K23: G 2.54, R 1.22, M 2.33, H 1.79, D 2.41, S 2.15, E 2.6, Q 2.11, L 1.66, C 1.74, W 2.33, I 3.31
L22: M 2.13, A 2.22, R 2.75, K 2.45, S 3.29, T 2.62, Y 1.92, D 3.28, W 1.65, H 2.35, N 2.53
Q6: D 2.74, A 2.04, I 2.27, F 1.93, T 2.8, M 2.49, R 2.63, Y 2.65, S 2.19, W 2.03
Y1: F 1.58, S 3.7, I 2.04, R 2.96, C 1.56, P 3.04, K 3.46, D 4.53, A 1.86, H 3.7, V 1.29
D16: E 2.13, K 2.35, I 2.51, F 3.17, V 1.69, W 2.96, T 2.09, Q 2.52, H 2.73, G 1.76, A 3.13
Q9: E 2.72, I 1.71, C 1.4, D 2.6, N 2.25, W 2.39, M 2.32, H 1.95, V 1.88, T 2.19, P 2.73, L 1.83
E3: W 1.68, C 2.13, R 3.7, Y 2.39, G 1.35, A 2.23, I 2.29, P 1.69, Q 1.63, S 2.11
V13: D 2.54, Q 2.2, S 2.38, F 2.07, M 1.9, T 2.08, E 3.48, R 1.53, P 2.62, A 2.04, G 2.79, L 1.92, K 2.3
K18: P 2.1, F 1.44, Q 2.4, Y 1.86, H 2.04, M 1.64, A 2.4, E 2.46, L 2.31
F5: D 4.05, E 4.52, M 2.22, P 2.79, H 3.65, Q 3.7, T 3.29, C 2.69, Y 2.57
Q17: M 1.73, R 2.19, I 1.73, L 1.92, P 2.21, K 2.1, H 2.12, V 2.17, Y 1.72, D 2.01
R10: D 2.99, F 1.78, E 2.66, T 1.94, A 2.74, V 2.26, L 2.4, H 2.27, Y 1.79, P 2.55, K 2.12
K20: T 1.86, S 1.85, P 2.48, M 2.24, R 1.59, G 2.31, Q 2.36, L 1.82, F 2.56, W 2.42, H 2.19, C 1.76
I4: T 1.96, F 1.8, K 1.87, S 1.94, Y 1.5, Q 1.85, P 1.93, W 2.94, D 1.47
M15: T 2.53, C 2.32, Q 2.3, R 2.5, D 2.54, A 2.37, G 2.35, H 2.29, P 3.15, K 2.61
Q2: S 1.22, E 3.44, C 2.36, F 1.55, W 2.3, Y 1.72, K 2.19, V 1.72, A 1.84, R 1.56, M 1.82, P 2.15
S11: H 2.18, G 2.1, T 1.81, M 1.93, I 2.57, L 2.21, N 2.73, E 1.75
E24: S 2.78, C 2.13, H 2.33, D 2.48, W 2.41, L 2.45, A 1.89, Y 1.95, Q 1.57, R 1.8, G 1.78
K14: C 1.97, E 2.92, S 2.1, I 1.86, H 2.04, N 2.99, G 2.6, D 2.77, F 2.35, W 2.61, L 2.44, A 2.1, R 1.94
L8: T 3.24, P 2.06, S 2.58, A 2.78, G 2.74, Y 2.66, N 2.87, E 3.06, H 3.06, W 2.85
W12: F 2.57, G 2.84, T 2.88, L 2.4, S 2.55, C 2.34, A 3.07
